Consider five molecules from patent US20110300138A1 (published 2011).

Test [1] deals with human TSH receptor (full length) coated on ELISA plate wells (human) (UniProt P16473). Briefly: TSH-biotin binding inhibition ELISA, TSHR coated wells; 1 µg/mL in assay buffer; negative control MAb.
In test [2] the target is TSH receptor (TSHR), full length human, coated on tubes (human) (UniProt P16473). Briefly: inhibition of 125I-TSH binding to TSHR coated tubes; 10 µg/mL, diluted in assay buffer.
Test [3] has as its target human TSH receptor (full length) coated on ELISA plate wells (human) (UniProt P16473). Briefly: TSH-biotin binding inhibition ELISA, TSHR coated wells; 100 µg/mL in assay buffer; negative control MAb.
For test [4], the target named is TSHR (thyroid stimulating hormone receptor), full length human (human) (UniProt P16473). Kind of test: negative control; competitor ^125I-K1-70 IgG, TSHR coated tubes; 0.1 µg/mL in HBD.
In test [5] the target is human TSH receptor (full length) coated on ELISA plate wells (human) (UniProt P16473). Briefly: TSH-biotin binding inhibition ELISA, TSHR coated wells; 100 µg/mL in HBD serum pool; negative control MAb. For orientation: An ELISA detects its analyte on a solid surface through an enzyme-linked reagent.
Test [6] concerns the target human thyroid stimulating hormone receptor (TSHR), full length (human) (UniProt P16473). Briefly: 125I-K1-70 Fab (competitor) binding to TSHR coated tubes; negative control MAb 0.1 µg/mL in HBD serum.
For test [7], the target named is thyroid stimulating hormone receptor (TSHR), full length human TSHR (human) (UniProt P16473). Kind of test: TSH-biotin competition ELISA, TSHR coated wells; negative control, 0.1 µg/mL in assay buffer.
In test [8] the target is human thyroid stimulating hormone receptor (TSHR), full length (human) (UniProt P16473). Briefly: 125I-K1-70 Fab (competitor) binding to TSHR coated tubes; negative control MAb 10 µg/mL in HBD serum.
The target in test [9] is TSH receptor (TSHR), full length human, coated on tubes (human) (UniProt P16473). Briefly: inhibition of 125I-K1-18 IgG binding to TSHR coated tubes; competitor 125I-K1-18 IgG; sample at 0.01 µg/mL in assay buffer.
Test [10] deals with TSHR (thyroid stimulating hormone receptor), full length human (human) (UniProt P16473). Briefly: competitor ^125I-K1-70 IgG, TSHR coated tubes; 0.1 µg/mL in HBD.
Test [11] addresses TSHR (full length) coated on tubes (human) (UniProt P16473). Kind of test: inhibition of 125I-K1-18 Fab (competitor) binding to TSHR coated tubes; test sample 100 µg/mL in HBD serum.
The target in test [12] is TSHR (thyroid stimulating hormone receptor), full length human (human) (UniProt P16473). Kind of test: competitor ^125I-K1-70 IgG, TSHR coated tubes; 1 µg/mL in assay buffer.
Test [13] concerns the target thyroid stimulating hormone receptor (TSHR), full length human TSHR (human) (UniProt P16473). Kind of test: TSH-biotin competition ELISA, TSHR coated wells; 1 µg/mL in assay buffer.
For test [14], the target named is TSH receptor (full length human TSHR) (human) (UniProt P16473). Briefly: competition ELISA: inhibition of M22 Fab-peroxidase (competitor) binding to TSHR coated wells; test sample at 100 µg/mL diluted in HBD serum pool.
The target in test [15] is TSHR (thyroid stimulating hormone receptor), full length human (human) (UniProt P16473). Briefly: competitor ^125I-K1-70 IgG, TSHR coated tubes; 0.01 µg/mL in assay buffer.
The target in test [16] is thyroid stimulating hormone receptor (TSHR), full length, coated on tubes (human) (UniProt P16473). Briefly: inhibition of 125I-TSH binding, TSHR coated tubes; antibody 0.001 µg/mL in assay buffer; mean of duplicate.
For test [17], the target named is human TSH receptor (full length) coated on ELISA plate wells (human) (UniProt P16473). Kind of test: TSH-biotin binding inhibition ELISA, TSHR coated wells; 0.003 µg/mL in assay buffer + 100 µg/mL 5B3 IgG.
Test [18] has as its target TSH receptor (TSHR), full length human, coated on tubes (human) (UniProt P16473). Kind of test: inhibition of 125I-TSH binding to TSHR coated tubes; 0.003 µg/mL, diluted in assay buffer.
The target of test [19] is TSHR with Phe134 mutated to Ala, expressed in CHO cells (human) (UniProt P16473). Briefly: cell-based or functional assay.
The target in test [20] is wild type TSHR expressed in CHO cells (human) (UniProt P16473). Briefly: cell-based or functional assay.
The target of test [21] is TSH receptor (TSHR), full length human, coated on tubes (human) (UniProt P16473). Kind of test: inhibition of 125I-TSH binding to TSHR coated tubes; 1 µg/mL, diluted in HBD serum pool.
For test [22], the target named is TSH receptor (TSHR) coated on tubes (human) (UniProt P16473). Briefly: inhibition of 125I-K1-70 IgG binding to TSHR coated tubes; sample 10 µg/mL in HBD serum pool.
Test [23] has the same target. Kind of test: inhibition of 125I-K1-70 IgG binding to TSHR coated tubes; sample 0.01 µg/mL in HBD serum pool.
The target of test [24] is TSH receptor (TSHR), full length human, coated on tubes (human) (UniProt P16473). Briefly: inhibition of 125I-TSH binding to TSHR coated tubes; 100 µg/mL, diluted in assay buffer.
In test [25] the target is human thyroid stimulating hormone receptor (TSHR), full length (human) (UniProt P16473). Kind of test: 125I-K1-18 Fab competition, TSHR coated tubes; 100 µg/mL in assay buffer.
Test [26] addresses TSH receptor (TSHR) coated on tubes (human) (UniProt P16473). Briefly: inhibition of 125I-K1-70 IgG binding to TSHR coated tubes; sample 10 µg/mL in assay buffer.

In the case of 5B3 IgG (antibody), the % inhibition of TSH-biotin binding was -1% in test [1], 8.3% in test [3] and 10.9% in test [5]. Further, the Inhibition of binding (%) in test [2] was -5.7%; in test [4] it was -3.6%; in test [6], -8.7%; in test [7] it was -7.8%; in test [8], -5.7%.

9D33 IgG (antibody): the Inhibition of binding (%) was found to be 20.9% in test [9]; 14.8% in test [10]; 77.3% in [11]; 37.2% in test [12]; 81.8% in test [13]; 65.9% in test [14]. For the same molecule, the Inhibition of binding (%) in test [15] was 9.4%.

For the molecule M22 IgG (antibody), the Inhibition of binding (%) in [16] was 1.5%; in test [18] it was -1.5%. Moreover, the % inhibition of TSH-biotin binding in [17] was -0.5%.

As for TSH (ligand), in test [19], the Cyclic AMP produced, TSH 0.01 ng/mL, mutated TSHR was 4.73 pmol/mL; the Cyclic AMP produced, TSH 0.03 ng/mL, mutated TSHR stood at 6.05 pmol/mL; the Cyclic AMP produced, TSH 0.1 ng/mL, mutated TSHR is 12.7 pmol/mL; the Cyclic AMP produced, TSH 0.3 ng/mL, mutated TSHR was 27.3 pmol/mL. In test [19], the Cyclic AMP produced, TSH 1 ng/mL, mutated TSHR was found to be 53.7 pmol/mL; the Cyclic AMP produced, TSH 3 ng/mL, mutated TSHR came out at 61.5 pmol/mL; the Mutated/Wild type (%), TSH 0.01 ng/mL was found to be 189%; the Mutated/Wild type (%), TSH 0.03 ng/mL was 141%. Also, in test [19], the Mutated/Wild type (%), TSH 0.1 ng/mL stood at 120%; the Mutated/Wild type (%), TSH 0.3 ng/mL is 94%; the Mutated/Wild type (%), TSH 1 ng/mL was found to be 102%; the Mutated/Wild type (%), TSH 3 ng/mL stood at 101%. Further, in test [20], the Cyclic AMP produced, TSH 0.01 ng/mL, wild type TSHR was 2.5 pmol/mL; the Cyclic AMP produced, TSH 0.03 ng/mL, wild type TSHR worked out at 4.29 pmol/mL; the Cyclic AMP produced, TSH 0.1 ng/mL, wild type TSHR was 10.6 pmol/mL; the Cyclic AMP produced, TSH 0.3 ng/mL, wild type TSHR is 28.9 pmol/mL. In test [20], this molecule returned a Cyclic AMP produced, TSH 1 ng/mL, wild type TSHR of 52.5 pmol/mL and a Cyclic AMP produced, TSH 3 ng/mL, wild type TSHR of 61.1 pmol/mL.

B1: 5C9 IgG (antibody, from another filing, V domains shown)
VH: EVQLVESGGGLIQPGGSLRLSCAASGFTVSSNYMSWVRQAPGKGLEWVSVTYSGGSTSYADSVKGRFTISRDNSKNTLYLQMNSLRAEDTAVYYCARGGRYCSSISCYARSGCDYWGQGTLVTVSS
VL: AIQMTQSPSSLSASVGDRVTITCRASQSISNYLNWYQQKPGKAPKLLIYAASSLQSGVPSRFSGSGSGTDFTLTISSLQPEDFATYYCQQSYSSPSTTFGQGTKLEIK
Turning to B1, the Inhibition of binding (%) in test [21] came to 24.8%; in test [22], 22.7%; in test [23], 2.8%; in test [24], 92.5%; in [25], 85.2%; in test [26] it was 84.8%.
